Values joined by “and” are separate entries in the source; they are usually repeats but may differ in a detail not shown here. Equal entries are not always repeated. Where two headings read alike, the source gives them in different places.
Target: T1, hIL-1R1 (Homo sapiens, UniProt P14778)
T1 construct: the cell suspension containing the mature Interleukin-1R1(21–337)-His6 was centrifuged; made in house; host or cells: HEK-ExpiGnti- cells (transient, secreted)
T1 sequence (P14778 21-337): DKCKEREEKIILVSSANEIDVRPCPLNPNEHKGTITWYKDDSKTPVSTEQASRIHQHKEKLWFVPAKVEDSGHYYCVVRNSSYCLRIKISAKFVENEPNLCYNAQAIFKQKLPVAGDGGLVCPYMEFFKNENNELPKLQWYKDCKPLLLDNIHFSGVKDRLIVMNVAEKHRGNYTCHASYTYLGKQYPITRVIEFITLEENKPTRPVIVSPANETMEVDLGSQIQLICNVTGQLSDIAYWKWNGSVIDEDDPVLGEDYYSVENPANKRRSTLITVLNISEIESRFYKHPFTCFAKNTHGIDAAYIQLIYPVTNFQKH
Assay: SPR binding of IL-1β and V47A variant to immobilized IL-1R1
Conditions: source data, read-out: SPR binding to IL-1R1, individual experiments (Exp1-3)
Protocol: The receptor IL-1R1 was covalently immobilized to the chip surface of a CMD50L sensor by amine coupling. The coupling reagents (EDC/NHS and ethanolamine) were from Bruker. 1× PBS pH 7.5 (Gibco 70011-036, 10×), 0.05 % Tween-20 was used as running buffer. The chip surface was activated with a 3 min injection of EDC/NHS (200 mM 1-ethyl-3-(3-dimethylaminopropyl)-carbodiimide hydrochloride, 25 mM N-hydroxysuccinimide), followed by the protein injection of 0.02 mg/ml IL-1R1 diluted in 10 mM sodium acetate pH 5.0 for 3 min at 10 μl/min. The remaining active succinimides on the surface were deactivated by an injection of 1 M ethanolamine hydrochloride pH 8.5 over 3 min at 10 μl/min.
The injection of the protein dilution series was performed with 8 concentrations in SICK mode (single injection cycle kinetic) with a flow rate of 40 μl/min and 2 reference injections with buffer before and after the protein injection.
Data analysis was performed with the Sierra Analyzer 3.4.0 software from Bruker. Signal intensities were corrected for nonspecific binding to the surface by subtracting intensities from the reference surface from those of the hIL-1β surfaces (first reference subtraction) and by subtracting the buffer injection (second reference subtraction). […]
as se ss ed by SPR. Bindi ng of hI L-1b (a, b) and hI L-1bV47A (c, d) to hI L-1R1 monitored by SPR. […]

**Q.** Which Kd (listed as wt IL-1beta) does the source give for “hIL-1β: proteolytically processed mature human interleukin-1β, analyte in SPR on IL-1R1” here?
**A.** Its Kd is 3.9 nM and 2.4 nM.

**Q.** For “hIL-1β^V47A: hIL-1β variant with Val47 replaced by Ala”, which Kd (listed as IL-1beta V47A) is on record?
**A.** Its Kd is 3.4 nM and 4.3 nM and 4 nM.
